From patent US12209122
Positions count from the first letter of the chain named. Numbers in names are those of the source.

B1: humanized scFv 16-22-H05-sc02 (structural graft, STR) (scFv)
scFv: MDIQMTQSPSSLSASVGDRVTIKCQASQSIFSGLAWYQQKPGKAPKLLIYGASKLASGVPSRFSGSGSGTEFTLTISGLQPADFATYYCQSYYYSSSSSDGSYAFGGGTKLTVLGGGGGSGGGGSGGGGSGGGGSEVQLVESGGGLVQPGGSLRLSCKASGIDFNNYGIGWVRQAPGKGLEWITYIYPGFAITNFANSVKGRFTISSDNSKNTVYLQMNSLRAEDTAVYYCARDPVYATSSGYFDLWGQGTLVTVSS
notes: also called 16-22-H5-sc02; 16-22-H04-sc02 [sic]
B2: humanized scFv 16-22-H05-sc04 (CDR grafted light chain, structural grafted heavy chain, CDR/STR) (scFv)
scFv: B1 scFv with K23T
notes: also called 16-22-05-sc04
B3: humanized IgG of clone 16-22-H05 (antibody, V domains shown)
VH: EVQLVESGGGLVQPGGSLRLSCKASGIDFNNYGIGWVRQAPGKGLEWITYIYPGFAITNFANSVKGRFTISSDNSKNTVYLQMNSLRAEDTAVYYCARDPVYATSSGYFDLWGQGTLVTVSS
VL: DIQMTQSPSSLSASVGDRVTIKCQASQSIFSGLAWYQQKPGKAPKLLIYGASKLASGVPSRFSGSGSGTEFTLTISGLQPADFATYYCQSYYYSSSSSDGSYAFGGGTKLTVLG
notes: Transiently expressed in CHO S cells and purified on Protein A; also called 16-22-H5-IgG
B4: humanized single-chain diabody of clone 16-22-H05 (other)
chain: MDIQMTQSPSSLSASVGDRVTIKCQASQSIFSGLAWYQQKPGKAPKLLIYGASKLASGVPSRFSGSGSGTEFTLTISGLQPADFATYYCQSYYYSSSSSDGSYAFGGGTKLTVLGGGGGSEVQLVESGGGLVQPGGSLRLSCKASGIDFNNYGIGWVRQAPGKGLEWITYIYPGFAITNFANSVKGRFTISSDNSKNTVYLQMNSLRAEDTAVYYCARDPVYATSSGYFDLWGQGTLVTVSSGGGGSGGGGSGGGGSGGGGSDIQMTQSPSSLSASVGDRVTIKCQASQSIFSGLAWYQQKPGKAPKLLIYGASKLASGVPSRFSGSGSGTEFTLTISGLQPADFATYYCQSYYYSSSSSDGSYAFGGGTKLTVLGGGGGSEVQLVESGGGLVQPGGSLRLSCKASGIDFNNYGIGWVRQAPGKGLEWITYIYPGFAITNFANSVKGRFTISSDNSKNTVYLQMNSLRAEDTAVYYCARDPVYATSSGYFDLWGQGTLVTVSS
notes: Single-chain diabody VLA-L1-VHB-L2-VLB-L3-VHA, bivalent for TNFα; L1 and L3 are G4S, L2 is (G4S)4; also called 16-22-H5-scDb; scDb
B5: 16-22-H5-scFv (scFv format of Examples 3 to 7) (scFv)
chain: B1 scFv
B6: recombinant human TNFβ (Peprotech, Cat. No. 300-01B) (ligand, UniProt P01374 35-205, looked up)
chain: LPGVGLTPSAAQTARQHPKMHLAHSTLKPAAHLIGDPSKQNSLLWRANTDRAFLQDGFSLSNNSLLVPTSGIYFVYSQVVFSGKAYSPKATSSPLYLAHEVQLFSSQYPFHVPLLSSQKMVYPGLQEPWLHSMYHGAAFQLTQGDQLSTHTDGIPHLVLSPSTVFFGAFAL

Legend:
[1] = biological target: T1, recombinant human TNFα (Peprotech, Cat. No. 300-01) (human, UniProt P01375 77-233); assay: cell-based or functional assay
[2] = biological target: T2, recombinant Cynomolgus monkey TNFα (Sino Biological, Cat. No. 90018-CNAE) (Cynomolgus monkey (Macaca fascicularis), UniProt P79337 77-233); assay: cell-based or functional assay
[3] = biological target: T3, Rhesus monkey TNFα (R&D Systems, Cat. No. 1070-RM-025/CF) (Rhesus monkey (Macaca mulatta), UniProt P48094 77-233); assay: cell-based or functional assay
[4] = biological target: T2, recombinant Cynomolgus monkey TNFα …; assay: SPR, TNFα immobilized, scFv injected
Experimental: (§1) In a second step, for the best performing scFvs, Single Injection Cycle Kinetics (SiCK) were measured from a single injection cycle by simultaneously injecting six analyte samples at different concentrations into each of the eight parallel channels in the MASS-1 system. […] The apparent dissociation (k_d) and association (k_a) rate constants and the apparent dissociation equilibrium constant (K_D) were calculated with the MASS-1 analysis software (Analyzer, Sierra Sensors) using one-to-one Langmuir binding model and quality of the fits was monitored based on Chi^2, which is a measure for the quality of the curve fitting. The smaller the value for the Chi^2 the more accurate is the fitting to the one-to-one Langmuir binding model. For affinity screenings, results were deemed valid if the Chi^2 was below 10 for the concentration analyzed. In cases where several scFv concentrations were analyzed, results were deemed valid if the average Chi^2 over all the concentrations tested was below 10.

[5] = biological target: T3, Rhesus monkey TNFα (R&D Systems, Cat. …); assay: SPR, TNFα immobilized, scFv injected
Experimental: as §1

[6] = biological target: T1, recombinant human TNFα (Peprotech, Cat. …); assay: SPR (MASS-1), TNFα immobilized, scFv 45 to 1.4 nM
Experimental: In a second step, for the best performing scFvs, Single Injection Cycle Kinetics (SiCK) were measured from a single injection cycle by simultaneously injecting six analyte samples at different concentrations into each of the eight parallel channels in the MASS-1 system. […] The apparent dissociation (k_d) and association (k_a) rate constants and the apparent dissociation equilibrium constant (K_D) were calculated with the MASS-1 analysis software (Analyzer, Sierra Sensors) using one-to-one Langmuir binding model and quality of the fits was monitored based on Chi^2, which is a measure for the quality of the curve fitting.

[7] = biological target: T2, recombinant Cynomolgus monkey TNFα …; assay: SPR (MASS-1), cyno TNFα immobilized, scFv 45 to 1.4 nM
Experimental: as §1

[8] = biological target: T3, Rhesus monkey TNFα (R&D Systems, Cat. …); assay: SPR (MASS-1), Rhesus TNFα immobilized, scFv 45 to 1.4 nM
Experimental: as §1

[9] = biological target: B6; assay: competition ELISA, coated scFv, biotinylated TNFα, unlabeled TNFβ
Experimental: (§2) For this purpose, the scFvs were coated on a 96-well Maxisorp ELISA plate at a concentration of 1 μg/ml. […] To control precision of the response, the dose-response curves were analyzed in duplicate.

[10] = biological target: T1, recombinant human TNFα (Peprotech, Cat. …); assay: inhibition ELISA, blocking of TNFα binding to coated TNFRI-Fc
Source text: (§3) For the first inhibition ELISA, the extracellular domain of TNFRI fused to the Fc region of human IgG (R&D Systems, Cat. No. 372-RI) was coated on a 96-well Maxisorp ELISA at a concentration of […]. […] All subsequent steps were identical for both assays.

[11] = biological target: T1, recombinant human TNFα (Peprotech, Cat. …); assay: inhibition ELISA, blocking of TNFα binding to coated TNFRII-Fc
Source text: as §3

[12] = biological target: T1, recombinant human TNFα (Peprotech, Cat. …); assay: inhibition ELISA, blocking of TNFα binding to coated TNFRI-Fc; reference infliximab
Source text: as §3

[13] = biological target: T1, recombinant human TNFα (Peprotech, Cat. …); assay: inhibition ELISA, blocking of TNFα binding to coated TNFRII-Fc; reference infliximab
[14] = biological target: T1, recombinant human TNFα (Peprotech, Cat. …); assay: cell-based or functional assay; remark: listed apart in the source
[15] = biological target: T1, recombinant human TNFα (Peprotech, Cat. …); assay: SPR as in Example 2 under 2.1.1
[16] = biological target: B1; assay: competition ELISA, coated scFv, biotinylated TNFα 75 ng/ml, unlabeled TNFβ varied
Experimental: as §2

[17] = biological target: B2; assay: as above
Experimental: as §2

[18] = biological target: B1; assay: competition ELISA, coated scFv, biotinylated TNFα, unlabeled TNFβ against unlabeled TNFα
Experimental: as §2

[19] = biological target: B2; assay: as above
Experimental: as §2

T3 sequence (P48094 77-233 limits assumed): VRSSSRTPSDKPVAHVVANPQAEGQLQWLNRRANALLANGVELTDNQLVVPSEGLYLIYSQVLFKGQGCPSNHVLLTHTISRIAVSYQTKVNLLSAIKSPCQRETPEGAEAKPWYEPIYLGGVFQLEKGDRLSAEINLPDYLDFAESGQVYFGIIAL
T1 sequence (P01375 77-233 limits assumed): as the sequence (P48094 77-233 limits assumed) above, with T44R, N72T, L138R counted along it
T2 sequence (P79337 77-233 limits assumed): as the sequence (P48094 77-233 limits assumed) above, with L37V counted along it

B1
Potency in L929 assay, rel. IC50 (IC50 infliximab / IC50 scFv, ng/ml) [1]: 13.1 fold
Potency in L929 assay, rel. IC90 (IC90 infliximab / IC90 scFv, ng/ml) [1]: 12.6 fold
Species-specificity IC50 [ng/ml], L929 assay, human TNFα [1]: 0.6 ng/mL
Species-specificity IC50 [ng/ml], L929 assay, cyno TNFα [2]: 2.9 ng/mL
Species-specificity IC50 [ng/ml], L929 assay, Rhesus TNFα [3]: 3 ng/mL
fold difference in affinity against human TNFα [4]: ~5 fold
fold difference in affinity against human TNFα [5]: ~5 fold
Kd [6]: 0.045 nM
koff [6]: 4.3e-05 s⁻¹
kon [6]: 960000 M⁻¹ s⁻¹
Kd [7]: 0.2 nM
koff [7]: 9.6e-05 s⁻¹
kon [7]: 490000 M⁻¹ s⁻¹
Kd [8]: 0.23 nM
koff [8]: 0.00015 s⁻¹
kon [8]: 670000 M⁻¹ s⁻¹
binding result [9]: no binding (tested: 1250 µg/ml)
IC50 [10]: 0.0139 µg/mL
IC50 [11]: 0.02 µg/mL
rel. IC50 (IC50 infliximab / IC50 scFv, ng/mL) [12]: 3.5 fold
rel. IC90 (IC90 infliximab / IC90 scFv, ng/mL) [12]: 2.4 fold
rel. IC50 (IC50 infliximab / IC50 scFv, ng/mL) [13]: 5.7 fold
rel. IC90 (IC90 infliximab / IC90 scFv, ng/mL) [13]: 3.3 fold

B2
Potency in L929 assay, rel. IC50 (IC50 infliximab / IC50 scFv, ng/ml) [1]: 14.6 fold
Potency in L929 assay, rel. IC90 (IC90 infliximab / IC90 scFv, ng/ml) [1]: 13.1 fold
Species-specificity IC50 [ng/ml], L929 assay, human TNFα [1]: 0.5 ng/mL
Species-specificity IC50 [ng/ml], L929 assay, cyno TNFα [2]: 3.5 ng/mL
Species-specificity IC50 [ng/ml], L929 assay, Rhesus TNFα [3]: 2.9 ng/mL
Kd [6]: 0.11 nM
koff [6]: 7.1e-05 s⁻¹
kon [6]: 680000 M⁻¹ s⁻¹
binding result [9]: no binding (tested: 1250 µg/ml)
IC50 [10]: 0.0177 µg/mL
IC50 [11]: 0.0326 µg/mL
rel. IC50 (IC50 infliximab / IC50 scFv, ng/mL) [12]: 2.8 fold
rel. IC90 (IC90 infliximab / IC90 scFv, ng/mL) [12]: 2.1 fold
rel. IC50 (IC50 infliximab / IC50 scFv, ng/mL) [13]: 3.5 fold
rel. IC90 (IC90 infliximab / IC90 scFv, ng/mL) [13]: 1.5 fold

B3
Potency IC50 (nM), L929 assay [14]: 0.02 nM
Kd [15]: 0.0417 nM
koff [15]: 7.92e-05 s⁻¹
kon [15]: 1.9e+06 M⁻¹ s⁻¹

B4
Potency IC50 (nM), L929 assay [14]: 0.01 nM
Kd [15]: 0.0215 nM
koff [15]: 2.02e-05 s⁻¹
kon [15]: 940000 M⁻¹ s⁻¹

B5
Potency IC50 (nM), L929 assay [14]: 0.03 nM
Kd [15]: 0.0379 nM
koff [15]: 3.38e-05 s⁻¹
kon [15]: 893000 M⁻¹ s⁻¹

B6
IC50 [16]: > 1250 µg/mL
IC50 [17]: > 1250 µg/mL
Target selectivity, rel. IC50 of TNFβ vs TNFα [18]: > 10000 fold
Target selectivity, rel. IC50 of TNFβ vs TNFα [19]: > 10000 fold
